Measured values as given in the domain aggregation screens of Martell et al. (2025).

Experiment: soluble fraction after stress (log2 fold change); higher = more stays soluble; pooled small domains, quantitative proteomics
Conditions: stress: 75 degC
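Further: 20 min heating vs room temperature control held 20 min.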

HMGVLDFSAQLLKHLEMNGGQTPLGDKSPAEEIYAVFGVSKKVFKKAVGDLYRKRLIEISSNGIRMTS
soluble fraction (log2): -2.14

HMGVLGVDALAAAAEVSVDTVRYYQHLGLLEPPRREGRRAVYGPSHLARMGEIRRLAAAGFTLDQIRQLAE
soluble fraction (log2): -2.81

HMGVPTEQQSLIGKSGIAATDLRPSGKVEIDGKRYDAVSNYAGFIAKGTPISVVRYETGQIYVE
soluble fraction (log2): 0.205

HMGYDDVIVINGKNETYGFPTKVEDDPVLSLVIKGDRSIDYAEERRLFYVAMTRTKNRVFFVAP
soluble fraction (log2): 0.0548

HMGYGEQEAEATKYMSLHAIMSADETLSKMYTPENQHKLMTHVMEQNGIKNVKDYLTPPSELP
soluble fraction (log2): 0.016

HMGYPYDTVTTAKVNLRAKRSTSSDILKKIPEGATVTVKGVTGTFASVDYNGTSGYVKVDYLV
soluble fraction (log2): -0.46

HMGYSSKISELLTKYNMNASELAQKVGVPPTTIYSIIKRDSKKADIEVLIKIAKLFNVPVEYF
soluble fraction (log2): -2.38

HMGYTPGVVIQKSAILEEINQPDLALGMMLEAVKKDSQNLDILNRLVTLLIDQKKNEDAEIYNKKIIT
soluble fraction (log2): 0.234

HMHAGMKSWTIQYEKSPIYGSFLMYKDGNIYIQKEDNVVVHFPLDRFSQNDQAILKSRIEKIDQINKSS
soluble fraction (log2): -0.761

HMHAPKIIVLTINPDKIRDVIGPGGKMIKSIVAATGVKMDVEDDGKIHISSSDQKAADEAIRMINEITAEA
soluble fraction (log2): 0.146

HMHAPLEVGSVVRIEGQKALGTILSISDREAIVALGALKTTIPLKRLHGVSPAEAQRHLRKTTPAQAVR
soluble fraction (log2): -0.665

HMHAQDTLMTRAGETRTVKILEIGLEEIKYRIWGLDDSPVIVIDKIDVKQIVFSNGEKMTIVQ
soluble fraction (log2): -1.47

HMHDLTERQREILQTLASGKMALREILSILSQPPSLRTLRDELYHLKRIGLVDTMGYGRGATWFLTQ
soluble fraction (log2): -0.223

HMHDNPLSAQEQRVLDLIAAGKTSKEIASQLFLSDGTVRNYTTSIFNKLNANNRVEAINIAQENGW
soluble fraction (log2): 0.866

HMHDPRLPLPGTLLAREFQGRDIVVKVLDNGFEFDGRRYKSLSAIAQEVTGSKWNGFLFFGI
soluble fraction (log2): -1.33

HMHDWDITTAAKPEKIFELFSDIPVLETGLKHGTVTLLIDHEPYEVTTFRVDGNYTDGRHPDSVAFT
soluble fraction (log2): 0.189

HMHGESIPIPNILHKRYADAEQIVNNLRLEIEVTDTGYVRSLPPGAILEQTPGPGERVKSGHIIYVTINAA
soluble fraction (log2): -1.42

HMHGETLAAKRREEIKVRIQNIYDQSEQIFGYRKITATLRSQGVVVSEKLVSQLMRELEISSVS
soluble fraction (log2): -3.92

HMHGSSVEIPNIYGLPASEAVQLLDKADLRYEVIDSVYTTEVPKGAVYDLSPKAGSRVKAGRIIFLTLNA
soluble fraction (log2): -0.942

HMHGSTAVVPQIKNMPYSEASVRLGANGLAIEINDSVYDRDMPPGTVIESWPKAGAVVKQGRQVYVTVTA
soluble fraction (log2): -0.425

HMHHGALKQALLDETARILAEEGESALSLRRLASNLGVSRTAPYNHFDNKDALLSAVAEEGFRR
soluble fraction (log2): -0.0868

HMHIELNDTQKRILNFLSDDPNLSAVRLAEQLGISSRNVEKNIKKLKEYGILIRHGSPKNGYWEIVV
soluble fraction (log2): 0.0385

HMHITSFTIKQADQIVGTTPVREQAVGAAKARAQQTGTPVSVIAYLDTGEEREVIIHPDGTN
soluble fraction (log2): 0.479

HMHKLTSRQEEILQFIKDYLSEIGYPPTRSEIAQKMGFRSTNAAEEHLRALARKGAIEILPGPSRGLRLP
soluble fraction (log2): -1.13

HMHKTEIKIPSREDILAVLRQAQAPLTREQVFEHLKLTEDQIPIIEKRLNAMERDGQLMPNRKGMLLLSTK
soluble fraction (log2): -0.0438

HMHKYEYESLNHVNVGSNLKYISTHFGQPKLIKKSKYHENLNFAYYLEKKFILTLILEGDRVNAYTITG
soluble fraction (log2): -0.732

HMHLEKGEVVVPDLKGLTMRQVGELLGKLNLRYSFSGTGLAVKQFPESGQIVNQGDIIEVIF
soluble fraction (log2): -0.56

HMHLLPAREQVAAYLRKAILRQEIREGTILNLADTARQMGVSVTPVREALQLLAAQGLVRLRPNKGAVVMG
soluble fraction (log2): -1.68

HMHLNVYRDEDEAMLAFKDHLIGTHQPIRVRVEKALPDGTMGHKIVDTTIGRIVFNHNIPQD
soluble fraction (log2): -0.185

HMHLTEAPLIKITYFEADQKKSGGQYITIINHLKKINEYENLLVLENGVKINIDDIYELESV
soluble fraction (log2): -0.191

HMHMNFGEILQTKRKEKGFTQEELAHQLLVSSKTISNWETNKTTPDIDNVIRISQLFDISLNQLLLE
soluble fraction (log2): -1.03

HMHMSKKLADSIISLRRKHGFSQEQLAEKIGVTRQAISNWERGTATPDVETLNLIAKLFDMDLLAIINGE
soluble fraction (log2): 0.0813

HMHNLYAPTQKEVDHARRVVEAAEAAAREGLGVVSLNGKMVDGPVIDRARLVLSRAELSGIRE
soluble fraction (log2): -0.157

HMHNNTITLNKKTYVYTASGKKMSKYLGYTYINKGTTLNYYGTKNIKGKTFYYIGDHAYVNAANVGKVTN
soluble fraction (log2): -2.07

HMHNQIGDKIRELRTRSNLTQADLGKLVGVSMQAVSKWERGGTPDIDVLLSVAKYFNISLDEMVGRT
soluble fraction (log2): -1.51

HMHPEITLHPVRANIYSISVKNATSMEIYSVSGQLVGIRELKEGTNTLDLTGYINGVYIVNLQNKAFKLVK
soluble fraction (log2): -2.38

HMHPELSDSQRTLIALMASGLKDEAIAVEMGVGARTVRRKVQELYELLGVRTRFQAGVAANQRGW
soluble fraction (log2): -2.34

HMHPKDVPTRRELEVLQAVSEGLSTAEIGLRLDITENTVETFRRRLIQKFDAKNAIDLVVKAMAQGWIKV
soluble fraction (log2): -2.23

HMHQGTIEVGSIVHIEGQKALGTILSLTQREAIVGLGALKTTIPLKRLHLATEAEARRHKKSVTPQEAV
soluble fraction (log2): -0.66

HMHQIFAETVFEDIAFGPRNKGFNEEEVAKQVREAMAFVGLDYDTYAQRSPFQLSGGQMRRVAIAGVVA
soluble fraction (log2): 0.0104

HMHQKYIITGTRDTYVVSQGETLRTIAEHVYGSRGYARYIIEHNHITHPDDIPVGLTIRLPELELNPDYR
soluble fraction (log2): -1.9

HMHRAKRTKAQTQSSLESIEGIGPKTRKQLLVHFGGLAEVKAASVSELQKVKGISLDKAQKIYDFFHGS
soluble fraction (log2): -0.617

HMHRNLSFEEEKEFLSAYTKQAEAGQIVDLNEMKAAYIEKVGHSIGGSQIYRMLERHGWRKVM
soluble fraction (log2): -0.446

HMHSDSEIEKGYTDDGQKLSNVNGVYMTKSEMYNKGIVEKDPNTGEEVMGRNRVNPVTGELE
soluble fraction (log2): 0.442

HMHSDWITWWYLKDKRFDDDYSLWDRQPVHPEYFEVVKEFKAPPESNPGGLDEVKRILRTYIPDAFAP
soluble fraction (log2): -1.11

HMHSESAAHQRTSVELFARIPETGNLQSAQRHFDVINQFGRFPHRNKILQRPSSEQEEAFLRQPGSG
soluble fraction (log2): 0.265

HMHSILDDIPTVGPARRKALMRRYESLEAIRQATVDELKELPEINEASAEAIVSFFAGQAKEG
soluble fraction (log2): -0.306

HMHSRTWTSADGVKTFEGELQSYDAASGKVSVILPNHKRITFKQEKLSADDIAWLEKNGNRP
soluble fraction (log2): -0.033

HMHTGLTNYEYKQIKSSLLKILTQSESMRLGELVDKVDQFESEKVTTVIRFLVGNEELMLFDDTLTLKKQL
soluble fraction (log2): -0.202

HMHTTIIVASRDIAAGSVLTSHDLSSVAWVGGAVPKGSYTAADLAVGKTAFTAFQQGEPILESRLAS
soluble fraction (log2): -0.35

HMHVVVIDKQGALSYQGKAITLLDLKNIVIDVPKETPFLIKADKDIHLQSFVEVLDLIKTAGFKKVSLQ
soluble fraction (log2): -2.86

HMIAANMTISQRIAAALAEYGVMSVKDIAQEVLGATDKKDTEKIRVTLTRDHGKRFRTYSDGTWSLKDWRP
soluble fraction (log2): -2.19

HMIAAVIAQVANTNERIILEKRYLSFKSWDEIAVEMRISPRWAYTLHERALKAVDQVLSKQNNE
soluble fraction (log2): -4.19

HMIADDLKSLEGVDQDMLRDLAEAGINTRDDLAELAIDELIEITGVSTEEAEKVIMAARAHWFEEES
soluble fraction (log2): 0.318

HMIAKEDDGTAFLIDGKISSEEEFKTISKDDILEVFVYKETEIAQKKLDSINSINNTYYTSLIEILLKE
soluble fraction (log2): ≥ 1.04

HMIAKIEGQISYVGNRFLIVDVSGVGYKLFVTNEAISLSKVEESIKLWVHTAVRENSIDLYG
soluble fraction (log2): -1.7

HMIANDDEIRKVVLEVIEEQPKAVEDVKNGRDRILDFLVGQVMKKTRGKANPSLASNLMKEEIEK
soluble fraction (log2): 0.453

HMIANNFDEFVEKVSEAERKALNMPAGQEMTQKLLEMKLAANPNLTPEEWQRTKSEFMTFLFAVFVRE
soluble fraction (log2): -0.939

HMIAVLEEGSHFRAVNDVTGKPFGPEMVIKNGQVTAVGKTISTKPKNLLGKKEGTKFVISGKQYVIKDI
soluble fraction (log2): -0.0244

HMIDAHTALLAKRLEAKGMLPLTDKSSAEEIYAEFGISKKAFKKALGALYKERLVRIGEDGVVWI
soluble fraction (log2): -1.8

HMIDFIGLEAKLLSTISGEKMGNAEVIVDGNVMNIYVKSLDTSEIKFRENVLIIKQSDDKNYYLVAKP
soluble fraction (log2): -3.26

HMIDIDTILKKYKPGRRDELIPLMQEIQEVYGHLSEEAVVKIGTYVGLSTTKIYGLATFYDQFRF
soluble fraction (log2): -1.76

HMIDLGKSRTWHSENGRAIEARVINISEEQQTVEMQRVDGLKFELSWNQLSKADQTLLAEAAKKTALVA
soluble fraction (log2): -0.0567

HMIDLPDIDIDFAKRTGVLEHITHTPARLETGKQHNTGVYFTDIPRGVDGLATMDHKRAEQLGYFKLDML
soluble fraction (log2): 0.0214

HMIDNKIIRSLRQKRNMTLEELAKKANISVSYLSEIELGKKQPSLETINKLSQALNISREGLI
soluble fraction (log2): -0.0581

HMIDPHGSLTLDLRPRDARVEIIDSNKTYKPGVRLPMGEYAIAVSRRGYISETKRINIEYGDNRERVAL
soluble fraction (log2): 0.108

HMIDSDENERIKELIKALISETLKSRGVSPEVISDIKERVDRLHNEELPRFAAELKELISRN
soluble fraction (log2): -0.0979

HMIDSEEVMETIQDLGYSPVFDVKEKFYKIKEEQIGKITLEVHIILRYGMVDLVWIVRENGELLLG
soluble fraction (log2): -0.0952

HMIDTLEYIISEESKGLRADQAITMVNGEFSRSLIQKWIKKGSILVNGKKIKPRDILNLNDKVTINPEEN
soluble fraction (log2): -0.24

HMIEDMQQWIRQIREIVSNRLDLTRNISDDEIREVISDIVMEQSRQQYMSLNEKKTLMEGVFNSMR
soluble fraction (log2): -0.534

HMIEEIETQFLFDFGLIGHPNSAKIREKLSEALGIGYVNGKQLQKRLMMFGITKQQVVDVLTD
soluble fraction (log2): -4.78

HMIEMAGGYRKGDRVELHSLKGAAEHNGKQGTVVGPQGERVKVLLDDSDSKTLALKVTNLTKLESA
soluble fraction (log2): 0.0656

HMIEMGNRIRTLRKRRVGSQSEFAEKLDVSVVTISRIENGMTKIDAELLIKMSEVLQVPVNIILGM
soluble fraction (log2): -3.29

HMIENPGQTFERIAGKITRTLRTGPLRIQQLDLLFSESGEQVMDVLRAMAENGEILIKDDTIQWNGHN
soluble fraction (log2): -0.246

HMIERKLRKKEHFIASVGEKVKIKNFATETYKGELISADNEKVVVETEFGKEEITYDNILAAATYFE
soluble fraction (log2): -0.808

HMIFNENLKSAREKKGLSQKEVAEAIGVAKSTYSLYESGNREPNVQTIKRIADVLNVSADVLLGL
soluble fraction (log2): -0.136

HMIGELVVEDLAAASEINVDTIRYYQRLGLLEPPRRRGRRAVYDHTHLERLAEIRRLAGAGFTLAQIGRLK
soluble fraction (log2): -3.19
